Tests used:
Assay in all cases: SPR; Biacore 2000, CM4 chip; PSA amine-coupled, antibody or conjugate bound to it; 10 min into the dissociation phase 40 nM FcRn in 10 mM maleic acid (pH 6.0) flown over for 3 min; number of FcRn bound per antibody from the RUs at the end of the FcRn injection
[1] = molecular target: hu5A10-DOTA, 12:1 chelator-to-antibody molar ratio
[2] = molecular target: hu5A10-DOTA, 3:1 chelator-to-antibody molar ratio
[3] = molecular target: hu5A10-DOTA, 6:1 chelator-to-antibody molar ratio
[4] = molecular target: hu5A10-DTPA, 12:1 chelator-to-antibody molar ratio
[5] = molecular target: hu5A10-DTPA, 3:1 chelator-to-antibody molar ratio
[6] = molecular target: hu5A10-DTPA, 6:1 chelator-to-antibody molar ratio
[7] = molecular target: humanized 5A10 (hu5A10), unconjugated

“neonatal fc-receptor (FcRn) (from UniProt P55899 24-297)” showed a FcRn bound per antibody (FcRn per antibody) [1] of 0.1, a FcRn bound per antibody (FcRn per antibody) [2] of 0.8 and a FcRn bound per antibody (FcRn per antibody) [3] of 0.5. It also gave a FcRn bound per antibody (FcRn per antibody) [4] of 1.7, a FcRn bound per antibody (FcRn per antibody) [5] of 1.9 and a FcRn bound per antibody (FcRn per antibody) [6] of 1.9. It also gave a FcRn bound per antibody (FcRn per antibody) [7] of 1.8.

From paper PMC8307315
